In general, koff refers to a measure of how fast the partners let go of each other. One may read the Kd as the concentration at which binding is half-saturated.

These results are taken from publication PMC10757926 (2023).

Assay in all cases: BLI
Experiment [1] addresses T1, biotinylated recombinant hSIRPα (extracellular portion) (human, UniProt P78324 31-373, biotin (Sulfo-NHS-LC-LC-Biotin)).
Experiment [2] addresses T1, biotinylated recombinant hSIRPα …. The source holds these as a separate data set.
For experiment [3] the target is unchanged. This is another data set of the same source.

Numbering of substitutions follows the chain as printed. In names and notes the source's numbering stands. Like-named read-outs stand apart in the source and are kept apart here.

T1 sequence (P78324 31-373): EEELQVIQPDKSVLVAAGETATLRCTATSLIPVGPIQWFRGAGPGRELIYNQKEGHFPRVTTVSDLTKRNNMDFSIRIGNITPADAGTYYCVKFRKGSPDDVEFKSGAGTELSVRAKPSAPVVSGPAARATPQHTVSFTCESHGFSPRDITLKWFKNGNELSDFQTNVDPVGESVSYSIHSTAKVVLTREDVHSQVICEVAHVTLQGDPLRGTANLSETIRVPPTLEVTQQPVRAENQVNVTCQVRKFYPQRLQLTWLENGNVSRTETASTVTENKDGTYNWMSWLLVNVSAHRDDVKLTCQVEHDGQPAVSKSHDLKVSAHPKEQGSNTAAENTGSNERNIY

B1: hSIRPα Nb S14 (VHH)
VHH: EVQLVESGGGLVQPGGSLRLSCAASGFTANSYRMTWVRQAPGKGLEWVADIGTGNEWKYYPDSVKGRFTISRDAAKNTVYLQMNSLKPEDTAVYYCAKNGAVWYGEDGLDYWGKGTLVTVSS
B1: the koff in experiment [1] turned out to be 0.00376 s⁻¹. Further, the dissociation constant Kd in experiment [2] is 16.7 nM.

B2: hSIRPα Nb S17 (VHH)
VHH: QVQLVESGGGLVQPGGSLRLSCAASGFTLDSYVIGWFRQAPGKEREGVSCISQRIGSTDYADSVKGRFTISKDNAKNTAYLQMNALKPEDTAVYYCAAGRLYYSGTYCPQGGMSYWGKGSPVTVSS
B2: the koff in experiment [1] was 0.00458 s⁻¹. Further, in experiment [2], the Kd worked out at 26.6 nM.

B3: hSIRPα Nb S44 (VHH)
VHH: QVQLQESGGGLVQPGGSLRLACAASGFTFSSYDMSWVRQAPGKGLEWVSDIKSGGGRTYYADSVKGRFTISRDNAKNTVYLQMNSLKPEDTAVYYCGSLDNSGAYTGGGQGSQVTVSS
For B3, the koff in experiment [1] is 0.00915 s⁻¹. For the same molecule, in experiment [2], the Kd came to 4.61 nM.

B4: hSIRPα Nb S33 (VHH)
VHH: EVQLVESGGGLVQPGGSLRLSCTTSGFTLDYYSVGWFRQAPGKEREGVSCITASGSSTNYANSVKGRFTISRDKVKNTVYLQMSSLKPEDTAVYYCAAEPCTVVAGILQAPTSDFGSWGQGTQVTVSS
For the molecule B4, the koff in experiment [1] was found to be 0.00544 s⁻¹. In experiment [2], the Kd was 20 nM.

B5: hSIRPα Nb S29 (VHH)
VHH: EVQLVESGGGLVQPGGSLRLSCAASGFTSETYAIGWFRQAPGKEREGVSCISNDGGSRNYADSVKGRFTISRDNAKNTSYLQMNSLKPEDTAVYYCAAGKYYYCLGYVSDGMDYWGKGTPVTVSS
On to B5, for which the koff in experiment [1] is 0.00462 s⁻¹. Besides, in experiment [2], the Kd was determined as 4.78 nM.

B6: hSIRPα Nb S45 (VHH)
VHH: HVQLVESGGGLVQPGGSLRLSCAARGFSFRDSAMSWARQAPGKGLEWVGAIYSDGSTVYEKSVKGRFTISRDNAKNTMYLQMHSLKPEDSARYYCAPKGVVADEGDYSGQGTLVTVSS
For the molecule B6, in experiment [1], the koff was found to be 0.00164 s⁻¹. Moreover, in experiment [2], the Kd was determined as 2.53 nM.

B7: hSIRPα Nb S12 (VHH)
VHH: QVQLVESGGGLVQPGGSLRLSCLVSGFSSSYYAIGWFRQAPGKEREGVSCITRSGDTTNYADSVKGRFTISRDDARNTVYLQMNSLKTEDTAVYSCALWAWAGSGRLRCTASEYGHWGQGTQVTVSS
For B7, the koff in experiment [1] turned out to be 0.0127 s⁻¹. Further, the Kd in experiment [2] came out at 25.9 nM.

B8: hSIRPα Nb S41 (VHH)
VHH: HVQLVESGGGLVQPGGSLRLSCAASGETLDYYAIGYVRQAPGKEREGVSCISSRGDNTNYADSVKGRFTISRDNANNTVYLQMNSLKPEDTAVYYCVAIKDSWQNYYCSVGWVEYDVWGQGTQVTVSS
In the case of B8, the koff in experiment [1] came out at 0.00383 s⁻¹. Also, the Kd in experiment [2] came out at 5.65 nM.

B9: hSIRPα Nb S43 (VHH)
VHH: HVQLVESGGGLVQPGGSARLSCAASGFDLDYFAIGWFRQAPGKEREGVSCISTRSETTNYVDSVKGRFTISRDNAISTVYLQMNNLKPEDTAVYYCAADWADWTMTGCQMTWDDYNYWGQGAQVTVSS
For B9, the koff in experiment [1] is 0.131 s⁻¹. Moreover, the Kd in experiment [2] was determined as 99 nM.

B10: hSIRPα Nb S21 (VHH)
VHH: DVQLVESGGGLVQPGGSLTLSCAASGFTSGTYALAYFRQAPGKEREGVSCISNDGGSRNYADSVKGRFTISRDNAKNTMYLQMNSLKPEDTAVYYCAAGPWYYCSDFARRPDGMDYWGKGTPVTVSS
Take B10: the Kd in experiment [2] came to 2.56 nM.

B11: hSIRPα-S36 Nb (VHH)
VHH: EVQLVESGGGLVQPGGSLRLSCAASGFTLDYYAIGWFRQVPGKEREGVSCISSDGGGNTYYADSVKGRFTISRDNAKNTVYLQMNSLKPEDSAVYSCAAGPTYYSGSYCRDPHSDYDYWGQGTQVTVSS
For B11, the off-rate (koff) in experiment [1] worked out at 0.0002 s⁻¹. Also, the Kd in experiment [2] was found to be 0.12 nM.

B12: hSIRPα-S36K>R Nb (VHH)
VHH: B11 VHH with K43R, K66R, K77R, K88R
Consider B12, for which the Kd in experiment [3] amounted to 0.19 nM.

B13: hSIRPα Nb S7 (VHH)
VHH: HVQLVESGGGLVQVGDSLRLSCAPSGRTFRAYAMAWFRQAPGKEREFVAAIRWIGGTPSYKDSVKGRFTISRDNARNTFYLQMNSLEPQDTGVYYCAAEETQKGSGLGHDGRHYDYWGQGTPVTVSS
Regarding B13, the koff in experiment [1] was 0.0123 s⁻¹. Moreover, in experiment [2], the Kd turned out to be 20 nM.

B14: hSIRPα Nb S8 (VHH)
VHH: QVQLVESGGGLVQPGGSLRLSCADSEFRLDEYATGWFRQAPGKEREGVACISRSGSNTKYTDSVKGRFTISRDNAKKTVYLQMNSLKPEDTAVYYCAADLTSHYLSCSSYTDYNSWGQGTQVTVSS
Turning to B14, the koff in experiment [1] stood at 0.0009 s⁻¹. Further, in experiment [2], the Kd is 0.46 nM.
